US20260250651, “CAS12 PROTEINS AND USES THEREOF” (GUANGZHOU REFORGENE MEDICINE CO., LTD., published 2026)

T1: Cas12i (wild-type, from CN111757889B)
T1 chain: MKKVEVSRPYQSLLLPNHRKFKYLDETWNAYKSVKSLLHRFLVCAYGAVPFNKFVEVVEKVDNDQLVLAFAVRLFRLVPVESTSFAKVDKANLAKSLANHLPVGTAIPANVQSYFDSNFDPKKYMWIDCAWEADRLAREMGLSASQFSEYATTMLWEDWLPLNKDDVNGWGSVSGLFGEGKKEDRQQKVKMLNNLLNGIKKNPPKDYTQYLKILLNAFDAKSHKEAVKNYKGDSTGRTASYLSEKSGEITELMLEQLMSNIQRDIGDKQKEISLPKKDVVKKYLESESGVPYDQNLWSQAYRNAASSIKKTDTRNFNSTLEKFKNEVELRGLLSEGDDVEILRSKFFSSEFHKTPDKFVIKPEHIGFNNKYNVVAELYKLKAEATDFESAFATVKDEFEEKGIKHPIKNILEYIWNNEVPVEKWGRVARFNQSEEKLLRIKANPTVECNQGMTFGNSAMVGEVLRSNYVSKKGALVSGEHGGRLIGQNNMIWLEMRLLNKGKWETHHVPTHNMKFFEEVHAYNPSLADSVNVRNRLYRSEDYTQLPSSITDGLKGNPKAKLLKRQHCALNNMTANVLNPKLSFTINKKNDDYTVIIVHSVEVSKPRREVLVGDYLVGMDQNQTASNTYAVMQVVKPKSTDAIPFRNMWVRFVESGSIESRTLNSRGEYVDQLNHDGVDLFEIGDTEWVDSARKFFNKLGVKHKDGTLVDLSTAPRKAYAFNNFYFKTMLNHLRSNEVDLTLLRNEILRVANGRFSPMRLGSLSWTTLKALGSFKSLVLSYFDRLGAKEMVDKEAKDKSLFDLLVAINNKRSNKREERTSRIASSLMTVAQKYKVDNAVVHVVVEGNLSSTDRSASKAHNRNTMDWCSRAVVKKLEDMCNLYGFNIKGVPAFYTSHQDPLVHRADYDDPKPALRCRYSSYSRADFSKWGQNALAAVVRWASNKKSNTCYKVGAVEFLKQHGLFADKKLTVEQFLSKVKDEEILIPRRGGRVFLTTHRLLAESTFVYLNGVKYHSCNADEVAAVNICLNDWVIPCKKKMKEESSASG

T2: Cas12i-69 (N295R,N260R,G705R)
T2 chain: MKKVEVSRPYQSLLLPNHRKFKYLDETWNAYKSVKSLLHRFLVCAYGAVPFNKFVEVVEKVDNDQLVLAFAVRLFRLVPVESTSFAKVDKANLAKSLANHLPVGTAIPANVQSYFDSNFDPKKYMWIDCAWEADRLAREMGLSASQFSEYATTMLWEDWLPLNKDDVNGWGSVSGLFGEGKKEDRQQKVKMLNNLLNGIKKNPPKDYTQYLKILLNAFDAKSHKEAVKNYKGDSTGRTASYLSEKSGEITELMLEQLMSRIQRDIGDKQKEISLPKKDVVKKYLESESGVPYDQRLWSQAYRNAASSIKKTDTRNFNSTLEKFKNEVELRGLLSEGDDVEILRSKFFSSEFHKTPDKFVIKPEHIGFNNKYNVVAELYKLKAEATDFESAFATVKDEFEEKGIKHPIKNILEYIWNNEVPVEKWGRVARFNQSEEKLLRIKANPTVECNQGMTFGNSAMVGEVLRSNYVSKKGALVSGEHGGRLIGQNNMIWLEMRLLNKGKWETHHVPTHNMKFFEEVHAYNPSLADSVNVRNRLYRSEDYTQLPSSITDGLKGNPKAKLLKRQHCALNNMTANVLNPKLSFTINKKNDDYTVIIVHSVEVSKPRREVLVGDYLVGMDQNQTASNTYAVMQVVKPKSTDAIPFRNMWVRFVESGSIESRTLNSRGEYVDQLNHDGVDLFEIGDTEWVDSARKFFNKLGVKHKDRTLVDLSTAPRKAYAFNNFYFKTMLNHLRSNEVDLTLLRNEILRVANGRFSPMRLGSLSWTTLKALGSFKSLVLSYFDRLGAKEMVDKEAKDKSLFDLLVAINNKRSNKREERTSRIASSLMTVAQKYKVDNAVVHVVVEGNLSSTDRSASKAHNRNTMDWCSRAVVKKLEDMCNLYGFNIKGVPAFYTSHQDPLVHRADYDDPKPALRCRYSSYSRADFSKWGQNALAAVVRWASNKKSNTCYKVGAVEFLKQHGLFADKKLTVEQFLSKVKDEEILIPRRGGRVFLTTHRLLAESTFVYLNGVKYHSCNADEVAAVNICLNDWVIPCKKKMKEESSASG


Columns and labels:
[1] = target: T1, Cas12i (wild-type, from CN111757889B); assay: cell_activity; 293T indels, reference; PAM not stated
Procedure: (§1) Plating: The 293T cell line was plated when the confluence reached 70-80%, and the number of cells seeded in a 24-well plate was 5*10\hat{ }5 cells/well.
(§2) Transfection: After 12-14 hours of plating, transfection was performed. 100 μl of Opti-MEM, 1.5 μl of PEI (Yisheng Bio, Polyethylenimine Linear (PEI) MW25000), 250 ng of the mutant clone plasmid from Example 2, and 250 ng of gRNA plasmid for targeting endogenous genes were added to each well of a 24-well plate. The mixture was incubated at room temperature for 20 minutes and then added to 293T cells for transfection. After transfection overnight, the medium was replaced with fresh medium and cultured for the next period.
(§3) DNA extraction, PCR amplification, and Sanger sequencing: After culturing for 72 hours, cells were washed with PBS, and then 100 μl of cell lysis buffer (Viagen, DirectPCR® Lysis Reagent (Cell)) was added for lysis to obtain a lysate containing genomic DNA. The genomic DNA was amplified in the region near the target sequence, and the PCR product was sent to a sequencing company for Sanger sequencing.

Cas12i-69 = target: T2, Cas12i-69; assay: cell_activity; 293T indels; editing >3%
Procedure: as §1, §2, §3

Binder	indel editing activity [1]	relative indel editing efficiency (Cas12i-69)
gRNA-TTR ; TTR target (ssRNA ; dsDNA) RNA: AGAGAAUGUGUGCAUAGUCACACCAGUAAGAUUUGGUGUCUAU DNA 1: CAGTAAGATTTGGTGTCTAT DNA 2: ATAGACACCAAATCTTACTG	1 fold of wild type	
gRNA-HBG ; HBG target (ssRNA ; dsDNA) RNA: AGAGAAUGUGUGCAUAGUCACACACAAGGCAAACUUGACCAAU DNA 1: ACAAGGCAAACTTGACCAAT DNA 2: ATTGGTCAAGTTTGCCTTGT	1 fold of wild type	1.27 fold of wild type
